{"source": "paper PMC2568912", "about": "(The Journal of Biological Chemistry, 2008)", "target": "the molecule itself", "assay": "non-reducing SDS-PAGE with immunoblot"}
{"protein": "N-terminal HA-tagged PKD2 mutant L703X (domain or fragment, human, UniProt Q13563 1-702, looked up) MVNSSRVQPQQPGDAKRPPAPRAPDPGRLMAGCAAVGASLAAPGGLCEQRGLEIEMQRIRQAAARDPPAGAAASPSPPLSSCSRQAWSRDNPGFEAEEEEEEVEGEEGGMVVEMDVEWRPGSRRSAASSAVSSVGARSRGLGGYHGAGHPSGRRRRREDQGPPCPSPVGGGDPLHRHLPLEGQPPRVAWAERLVRGLRGLWGTRLMEESSTNREKYLKSVLRELVTYLLFLIVLCILTYGMMSSNVYYYTRMMSQLFLDTPVSKTEKTNFKTLSSMEDFWKFTEGSLLDGLYWKMQPSNQTEADNRSFIFYENLLLGVPRIRQLRVRNGSCSIPQDLRDEIKECYDVYSVSSEDRAPFGPRNGTAWIYTSEKDLNGSSHWGIIATYSGAGYYLDLSRTREETAAQVASLKKNVWLDRGTRATFIDFSVYNANINLFCVVRLLVEFPATGGVIPSWQFQPLKLIRYVTTFDFFLAACEIIFCFFIFYYVVEEILEIRIHKLHYFRSFWNCLDVVIVVLSVVAIGINIYRTSNVEVLLQFLEDQNTFPNFEHLAYWQIQFNNIAAVTVFFVWIKLFKFINFNRTMSQLSTTMSRCAKDLFGFAIMFFIIFLAYAQLAYLVFGTQVDDFSTFQECIFTQFRIILGDINFAEIEEANRVLGPIYFTTFVFFMFFILLNMFLAIINDTYSEVKSDLAQQKAEMELSD", "values": [{"measurement": "stoichiometry N", "value": 2}]}
